# Data: US20180282403A1, “AGENTS FOR REDUCING THE ACTIVITY OF GDF15” (GENAGON THERAPEUTICS AB, priority 2015, published 2018)
# B1: pyroglutamylated RFamide Peptide Receptor (QRFPR) (receptor)
# chain: MQALNITPEQFSRLLRDHNLTREQFIALYRLRPLVYTPELPGRAKLALVLTGVLIFALALFGNALVFYVVTRSKAMRTVTNIFICSLALSDLLITFFCIPVTMLQNISDNWLGGAFICKMVPFVQSTAVVTEILTMTCIAVERHQGLVHPFKMKWQYTNRRAFTMLGVVWLVAVIVGSPMWHVQQLEIKYDFLYEKEHICCLEEWTSPVHQKIYTTFILVILFLLPLMVMLILYSKIGYELWIKKRVGDGSVLRTIHGKEMSKIARKKKRAVIMMVTVVALFAVCWAPFHVVHMMIEYSNFEKEYDDVTIKMIFAIVQIIGFSNSICNPIVYAFMNENFKKNVLSAVCYCIVNKTFSPAQRHGNSGITMMRKKAKFSLRENPVEETKGEAFSDGNIEVKLCEQTEEKKKLKRHLALFRSELAENSPLDSGH
# notes: Endogenous receptor of MCF-7 / U2OS cells and human tissues; also called GPR103; orexigenic neuropeptide QRFP receptor
# B2: endogenous GDF15 (in MCF-7 cells treated with Sulindac sulphide and in human tumour tissue arrays) (ligand, UniProt Q99988 197-308, looked up)
# chain: ARNGDHCPLGPGRCCRLHTVRASLEDLGWADWVLSPREVQVTMCIGACPSQFRAANMHAQIKTSLHRLKPDTVPAPCCVPASYNPMVLIQKTDTGVSLQTYDDLLAKDCHCI
# notes: Detected in complex with receptors by in situ PLA
# B3: AP1 (control protein): AAAQEADGARSAVVAAGGGSSGQVTSNGSIGRDPPAETQPQNPPAQPAPNAGGGGSGGGGSGGGGS-Fc mouse IgG1 (Fc fusion, not shown: a dimerising Fc or GST)
# chain: AAAQEADGARSAVVAAGGGSSGQVTSNGSIGRDPPAETQPQNPPAQPAPNAGGGGSGGGGSGGGGS
# notes: also called control polypeptide
# Assays:
# GDF15 = target: T1, GDF15 (Homo sapiens, UniProt Q99988); assay: GST-pulldowns of GDF15 with GST-fusion QRFPR and CLPTM1 fragments; type: binding; conditions: equal amounts of GST-fusion protein and GDF15, 4 hrs at 4° C., extensive washes incl. high salt; FIG. 8B
# T1 construct: purchased Abcam
# T1 sequence (Q99988 197-308 limits assumed): B2 chain
# Experimental: We then assembled the GDF15 binding motifs from QRFPR and CLPTM1 using synthetic hybridized oligonucleotides corresponding to the motifs from either extracellular domain 3, 4 (QRFPR) or CLPTM1. The oligonucleotides were inserted in a pGEX4T1 backbone, expressed in BL21 DE3pLys bacteria and purified. The correct sequences were confirmed by Sanger sequencing.
# We then incubated the purified GST-fusion proteins with equal amounts of GDF15 and subjected the analytes to extensive washes including high salt buffers.
# In short, selected fragments of the receptors were constructed from synthetic oligomers (ultramers, IDT technologies), the flanking ends digested by restriction enzymes, and inserted in a pGEX 4T-1 vector (Pharmacia Biotech). The constructs were cloned in a DH5 a library efficiency bacteria (Invitrogen). The correct clones were identified by analytical restriction digest run on a 2% agarose gel, and validated by Sanger sequencing at the Uppsala sequencing centre.
# The validated clones were used to transform BL21pLYs bacteria. […]
# The material was denatured by boiling in SDS loading dye supplemented with DDT for 5 min, then run on a 12% acrylamide gel (120 V for 70 min) and analysed by ECL and CCD camera (Biorad). […]
# QRFPR [1] = assay: In situ PLA detection of RAB11-QRFPR double positive endosomes in MCF7 cells; type: cell-based; conditions: MCF7 cells; GDF15 pre-incubated with receptor fragment; FIG. 9A-D
# Source text: The RAB11 protein is a marker for recycling endosomes back to the cell surface, and the RAB11 pathway is also involved in exosome assembly (Savina et al., 2005; Savina et al., 2002). RAB11 was thus thought to be a likely candidate to be involved in QRFPR reduction on the cell surface induced by GDF15
# An in situ PLA assay was developed to detect the proximity of RAB11 and QRFPR. In the absence of GDF15, only a low signal is observed (FIGS. 5A and 5C).
# (§1) We choose to use this assay as a way to investigate if the activity of GDF15 could be inhibited by various agents. […] GDF15-induced formation of RAB11/QRFPR endosomes is inhibited by QRFPR peptides (FIG. 9A-D). Equal amounts of a mastermix of GDF15 was aliquoted and pre-incubated in PBS with the various receptor fragment before addition to cells. Sequentially, the cells were treated with either PBS, GDF15 or GDF15/QRFPR-derived peptide mixes.
# QRFPR [2] = target: T2, QRFPR (Homo sapiens, UniProt Q96P65); assay: ACTRIIB assay: in situ PLA detection of ACTRIIB at the cell surface after QRFPR agonist P518; type: cell-based; conditions: P518 + peptide in 125 molar excess, FIG. 10D-F
# T2 construct: endogenous in cells
# T2 sequence (Q96P65 1-431): B1 chain
# Source text: (§2) A-C) In situ detection of QRFPR at the cell surface. A) Negative control cells with no added GDF15. B) Cells after exposure to GDF15. C) Cells after exposure to GDF15+ synthetic peptide GEKEYDDVTIK derived from extracellular domain 4 of QRFPR. […] D-F) In situ PLA detection of ACTRIIB at the cell surface. D) Control cells with no added P518. E) Cells after exposure to P518. F) Cells after exposure to P518+ synthetic peptide GEKEYDDVTIK derived from extracellular domain 4 of QRFPR in 125 molar excess. The ability of P518 to increase the level of ACTRIIB at the cell surface was not affected by the peptide.
# The effect of the QRFPR agonist p518 was measured. In short, p518/QRFP-26 was purchased from Phoenix Peptides, CA and processed according to the manufacturer's instructions. Cells were serum-starved prior to P518 stimulation overnight.
# P518 was mixed with either PBS or QRFPR receptor fragment dissolved in PBS prior to stimulation of cells.
# QRFPR [3] = assay: In situ detection of QRFPR at the cell surface after GDF15 with or without peptide (FIG. 10A-C); type: cell-based; conditions: cells exposed to GDF15 + synthetic peptide
# Source text: as §2
# FIGS. 10A-10C confirm that GDF15 reduces the level of QRFPR at the cell surface, and that this reduction may be reversed by a peptide derived from extracellular loop 3 (extracellular domain 4) of QRFPR.
# QRFPR [4] = assay: In situ PLA detection of QRFPR at the cell surface in U2OS osteosarcoma cells; type: cell-based; conditions: U2OS osteosarcoma cells; GDF15 + peptide; FIG. 9E
# Source text: A-D) In situ PLA detection of the Rab11-QRFPR complex following exposure of MCF7 cells to GDF15. A) +Ctrl peptide. B) +QRFPR extracellular N-terminal peptide. C-D) +QRFPR extracellular loop3 (domain 4) peptide. The level of the Rab11-QRFPR complex is reduced by the peptide from extracellular loop3 of QRFPR. E) in situ PLA detection of QRFPR in U2OS osteosarcoma cells.
# as §1
# ACTRIIB = target: T3, ACTRIIB (UniProt Q13705 19-512, limits assumed); assay: in situ PLA on serum-starved MCF7 cells
# T3 construct: whole, on cells; also called activin type II receptor B
# Experimental: MCF7 cells were stimulated with GDF15 (GDF15 from isolated mammalian source or recombinant derived from E. coli purchased from Abcam and Biovision). An assay was developed for monitoring the activity of GDF15 and to investigate the dynamics of receptor(s) such as QRFPR modulation by the ligand.
# Serum-starved MCF7 cells were treated with GDF15, and an in situ PLA detection assay was developed to detect the interaction between ACTRIIB and QRFPR using antibodies from two different species, thus allowing the use of Duolink secondary detection reagents. The presence of the QRFPR-ACTRIIB complex was detected in the absence of GDF15 (see FIG. 3A, indicated by arrows).
# [5] = target: B1; assay: in situ PLA on tissue micro array
# [6] = target: T4, Cleft Lip and Palate Transmembrane protein 1 (CLPTM1) (human, UniProt O96005 2-669); assay: in situ PLA on tissue micro array
# T4 construct: Endogenous receptor of NK-92 cells, CD14+ cells and human tissues
# T4 sequence: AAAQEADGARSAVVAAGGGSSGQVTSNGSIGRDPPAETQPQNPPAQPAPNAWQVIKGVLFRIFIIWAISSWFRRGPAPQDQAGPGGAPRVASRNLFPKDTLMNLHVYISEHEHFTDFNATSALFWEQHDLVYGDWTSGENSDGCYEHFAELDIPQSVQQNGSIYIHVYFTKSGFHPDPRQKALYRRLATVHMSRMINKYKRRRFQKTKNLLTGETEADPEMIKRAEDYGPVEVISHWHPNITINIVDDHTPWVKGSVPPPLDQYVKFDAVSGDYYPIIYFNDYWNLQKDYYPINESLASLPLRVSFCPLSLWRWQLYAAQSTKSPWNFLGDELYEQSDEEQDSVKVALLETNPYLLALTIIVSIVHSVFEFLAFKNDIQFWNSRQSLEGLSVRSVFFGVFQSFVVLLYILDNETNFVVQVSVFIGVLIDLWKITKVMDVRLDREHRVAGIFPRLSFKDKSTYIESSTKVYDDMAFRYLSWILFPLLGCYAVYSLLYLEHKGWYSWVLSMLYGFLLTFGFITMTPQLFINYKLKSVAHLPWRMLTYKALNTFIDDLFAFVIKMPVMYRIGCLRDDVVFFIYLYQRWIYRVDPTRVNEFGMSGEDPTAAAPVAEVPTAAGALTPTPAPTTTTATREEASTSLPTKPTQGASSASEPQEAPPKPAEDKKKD
# [7] = target: T5, Growth and differentiation factor 15 (GDF15) (UniProt Q99988 197-308, limits assumed); assay: Fc-fusion pull-down, said to agree with the array results
# T5 construct: Purchased GDF15 added to cells, pull-downs, peptide arrays and ELISA; also called MIC1
# T5 sequence (looked up): B2 chain
# Experimental: 20 μg Fc fusion protein constructs were incubated with 0.5 μg GDF15 and protein-G bead with mixing for 6 hrs in +4 C in PBST+1% BSAs. Wash 6 times: 3 times PBST, change tubes, 2 washes PBST+220 mM NaCl. Last wash PBS. The beads were collected using a table-top centrifuge set at 500 g for 5 minutes between washes. Detection The material was loaded on a 4-12% gradient gel, run at 100 volt, transferred to PVDF membrane using a Turbo Tank blot system, blocked by PBS with 3% BSA 1 hr RT, and incubated with RD systems a monoclonal anti-GDF15 antibody overnight. A secondary antibody: mouse HRP 1:2000 was used for detection. The size of band was estimated by comparing with a seeblue2 protein ladder marker run in an adjacent lane.
# T3 sequence (Q13705 19-512 limits assumed): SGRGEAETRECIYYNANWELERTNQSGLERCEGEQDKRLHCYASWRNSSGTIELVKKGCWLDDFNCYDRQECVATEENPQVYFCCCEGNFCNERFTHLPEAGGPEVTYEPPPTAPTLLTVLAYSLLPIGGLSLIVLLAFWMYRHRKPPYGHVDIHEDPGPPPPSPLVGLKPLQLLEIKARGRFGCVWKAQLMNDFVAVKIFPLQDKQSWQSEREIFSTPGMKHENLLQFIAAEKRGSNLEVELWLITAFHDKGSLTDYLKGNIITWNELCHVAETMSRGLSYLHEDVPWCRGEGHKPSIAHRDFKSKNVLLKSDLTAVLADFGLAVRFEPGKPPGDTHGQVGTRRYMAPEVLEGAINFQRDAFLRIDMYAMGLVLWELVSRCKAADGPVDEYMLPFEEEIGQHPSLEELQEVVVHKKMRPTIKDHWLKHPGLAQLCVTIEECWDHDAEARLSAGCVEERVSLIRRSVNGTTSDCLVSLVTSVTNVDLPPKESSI
molecule,measurement,setting,value
ALFWEQHDLVYGDWTS (listed as Homo sapiens) [SEQ ID NO:18],GDF15 binding to GST-fusion protein (GST-pulldown),GDF15,Increased binding
EIKYDFLYEKEHICCLEEWTS (listed as Homo sapiens) [SEQ ID NO:7],GDF15 binding to GST-fusion protein (GST-pulldown),GDF15,Increased binding
GEKEYDDVTIK [synthetic peptide derived from extracellular domain 4 of QRFPR],GDF15-induced RAB11-QRFPR double positive endosomes,QRFPR [1],substantially reduced
same,P518 induced ACTRIIB levels,QRFPR [2],not affected
same,P518 induced ACTRIIB levels,QRFPR [2]; listed as QRFPR receptor fragment,slight increase of ACTRIIB
same,QRFPR at the cell surface,QRFPR [3],reversed the removal of QRFPR from the cell surface
same,level of QRFPR detected at the cell surface,QRFPR [4],restore the level of QRFPR detected at the cell surface to the same level as control cells
B1,binding result,ACTRIIB,binds
B2,binding result,[5],binds
same,binding result,[6],binds
B3,binding result,[7],no binding
